The results in this text go back to USRE47150 (Bayer, dated 2018).

Positions count from the first letter of the chain named. Names may count otherwise.

T1: mouse tissue factor pathway inhibitor (TFPI) (mouse, UniProt O54819 29-289, limits assumed)
T1 construct: bought; also called mTFPI; murine TFPI
T1 sequence (looked up): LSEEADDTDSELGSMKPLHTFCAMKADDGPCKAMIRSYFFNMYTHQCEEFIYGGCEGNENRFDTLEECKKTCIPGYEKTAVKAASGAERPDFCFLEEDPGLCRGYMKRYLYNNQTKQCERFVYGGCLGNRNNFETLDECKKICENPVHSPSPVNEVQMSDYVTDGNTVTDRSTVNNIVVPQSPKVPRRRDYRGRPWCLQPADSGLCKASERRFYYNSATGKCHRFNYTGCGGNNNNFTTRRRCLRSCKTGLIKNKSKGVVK

T2: human tissue factor pathway inhibitor (TFPI) (human, UniProt P10646 29-304, limits assumed)
T2 construct: bought; also called hTFPI; human TFPI
T2 sequence (looked up): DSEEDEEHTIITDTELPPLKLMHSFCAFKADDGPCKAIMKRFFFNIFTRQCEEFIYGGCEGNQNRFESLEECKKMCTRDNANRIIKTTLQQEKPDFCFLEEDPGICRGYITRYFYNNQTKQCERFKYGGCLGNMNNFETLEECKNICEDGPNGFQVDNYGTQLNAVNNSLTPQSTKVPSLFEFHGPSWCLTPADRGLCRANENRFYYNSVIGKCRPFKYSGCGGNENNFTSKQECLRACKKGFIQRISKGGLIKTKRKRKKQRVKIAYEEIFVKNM

B1: 4B7 HC_D62I (Fab, V domains shown)
VH: QVQLQQSGPGLVKPSQTLSLTCAISGDSVSSNSAAWSWIRQSPGRGLEWLGIIYKRSKWYNIYAVSVKSRITINPDTSKNQFSLQLNSVTPEDTAVYYCARWHSDKHWGFDYWGQGTLVTVSS
VL: DIVMTQSPLSLPVTPGEPASISCRSSQSLVFSDGNTYLNWYLQKPGQSPQLLIYKGSNRASGVPDRFSGSGSGTDFTLKISRVEAEDVGVYYCQQYDSYPLTFGQGTKVEIKR
B2: 4B7 HC_D62N (Fab, V domains shown)
VH: B1 VH with I62N
VL: B1 VL
B3: 4B7 HC_D62L (Fab, V domains shown)
VH: B1 VH with I62L
VL: B1 VL
B4: 4B7 HC_D62S (Fab, V domains shown)
VH: B1 VH with I62S
VL: B1 VL
B5: 4B7 HC_D62Q (Fab, V domains shown)
VH: B1 VH with I62Q
VL: B1 VL
B6: 4B7 HC_G109A LC_D33R (Fab, V domains shown)
VH: B1 VH with I62D, G109A
VL: B1 VL with D33R
B7: 4B7 HC_D62V (Fab, V domains shown)
VH: B1 VH with I62V
VL: B1 VL
B8: 2A8 HC S35D+S55R+K99L/LC Y48F+N51V+D91W+G93S (Fab, V domains shown)
VH: QVQLVESGGGLVQPGGSLRLSCAASGFTFRSYGMDWVRQAPGKGLEWVSSIRGSRSSTYYADSVKGRFTISRDNSKNTLYLQMNSLRAEDTAVYYCARLYRYWFDYWGQGTLVTVSS
VL: DIELTQPPSVSVAPGQTARISCSGDNLRNYYAHWYQQKPGQAPVVVIFYDVNRPSGIPERFSGSNSGNTATLTISGTQAEDEADYYCQSWWDSVPVFGGGTKLTVLG
B9: 2A8 HC Q1E+R30S+S35D+S55R+S56G+K99L/LC D1S+I2Y+A13S+S21T+R28P+Y48F+N51V+E80M+D91W (Fab, V domains shown)
VH: B8 VH with Q1E, R30S, S56G
VL: B8 VL with D1S, I2Y, A13S, S21T, R28P, E80M, S93G
B10: 2A8 HC Q1E+S31V+S50A+I51D+S55R+S56G+K99V/LC D1S+I2Y+A13S+S21T+R28P+N29K+Y48F+E80M+D91L+D92S+V94T+V96W (Fab, V domains shown)
VH: B8 VH with Q1E, S31V, D35S, S50A, I51D, S56G, L99V
VL: SYELTQPPSVSVSPGQTARITCSGDNLPKYYAHWYQQKPGQAPVVVIFYDNNRPSGIPERFSGSNSGNTATLTISGTQAMDEADYYCQSWLSGTPWFGGGTKLTVLG
B11: 2A8 HC S35D+S55R+K99L/LC D1S+I2Y+A13S+S21T+R28P+N29K+Y48F+N51V+E80M+S89A+D91W+D92S+G93S+V94T (Fab, V domains shown)
VH: B8 VH
VL: B10 VL with N51V, S89A, L91W, G93S, W96V
B12: 2A8 HC S31V+I51D+S55R+K99V/LC D1S+I2Y+A13S+S21T+R28P+N29K+Y48F+Y49R+N51S+E80M+D91L+D92S+V94T+V96W (Fab, V domains shown)
VH: B8 VH with S31V, D35S, I51D, L99V
VL: B10 VL with Y49R, N51S
B13: 2A8 HC Q1E+R30S+S35D+S55R+S56G+K99L/LC D1S+I2Y+A13S+S21T+R28P+Y48F+N51V+E80M+S89A+D91W+D92S+G93S+V94T (Fab, V domains shown)
VH: B8 VH with Q1E, R30S, S56G
VL: B10 VL with K29N, N51V, S89A, L91W, G93S, W96V
B14: 2A8 HC Q1E+R30S+S35D+S55R+S56G+K99L/LC D1S+I2Y+A13S+S21T+R28P+N29K+Y48F+N51V+E80M+D91W (Fab, V domains shown)
VH: B8 VH with Q1E, R30S, S56G
VL: B10 VL with N51V, L91W, S92D, T94V, W96V
B15: 2A8 HC S31V+I51D+S55R+K99V/LC D1S+I2Y+A13S+S21T+R28P+N29K+Y48F+E80M+D91L+D92S+V94T+V96W (Fab, V domains shown)
VH: B8 VH with S31V, D35S, I51D, L99V
VL: B10 VL
B16: 2A8 HC Q1E+S31V+S50A+I51D+S55R+S56G+K99V/LC D1S+I2Y+A13S+S21T+R28P+N29K+Y48F+N51S+E80M+D91L+D92S+V94T+V96W (Fab, V domains shown)
VH: B8 VH with Q1E, S31V, D35S, S50A, I51D, S56G, L99V
VL: B10 VL with N51S
B17: 2A8 HC S35D+S55R+K99L/LC Y48F+N51V+S89A+D91W (Fab, V domains shown)
VH: B8 VH
VL: B8 VL with S89A, S93G
B18: 2A8 HC S35D+S55R+K99L/LC Y48F+N51V+D91W+V94T (Fab, V domains shown)
VH: B8 VH
VL: B8 VL with S93G, V94T
B19: 2A8 HC S35D+S55R+K99L/LC Y48F+N51V+D91W+P95V (Fab, V domains shown)
VH: B8 VH
VL: B8 VL with S93G, P95V
B20: 2A8 HC S35L+S54F+K99V/LC Y48F+D91K (Fab, V domains shown)
VH: B8 VH with D35L, S54F, R55S, L99V
VL: B8 VL with V51N, W91K, S93G
B21: 2A8 HC S35D+S55R+K99L/LC Y48F+N51V+E80M+D91W (Fab, V domains shown)
VH: B8 VH
VL: B8 VL with E80M, S93G
B22: 2A8 HC S35D+S56G+K99L/LC Y48F+D91L+V96W (Fab, V domains shown)
VH: B8 VH with R55S, S56G
VL: B8 VL with V51N, W91L, S93G, V96W
B23: 2A8 HC S35D+S55R+S56G+K99L/LC Y48F+N51V+D91W (Fab, V domains shown)
VH: B8 VH with S56G
VL: B8 VL with S93G
B24: 2A8 HC S35D+S55R+K99L/LC Y48F+N51V+S89A+D91W+D92S+G93S+V94T+P95A (Fab, V domains shown)
VH: B8 VH
VL: B8 VL with S89A, D92S, V94T, P95A
B25: 4B7 HC_S57R (Fab, V domains shown)
VH: B1 VH with S57R, I62D
VL: B1 VL

One assay has as its target T1, mouse tissue factor pathway inhibitor …. Briefly: equilibrium ELISA. On the technique in general: In an ELISA, binding on a coated surface is turned into a signal by an enzyme label.
Take B1: the variant/wild-type was 44.4 ratio.

In turn, B2 registered a variant/wild-type of 146 ratio.

B3 yielded a variant/wild-type of 22.9 ratio.

In turn, B4 returned a variant/wild-type of 146 ratio.

B5 showed a variant/wild-type of 142 ratio.

As for B6, the variant/wild-type came out at 8 ratio.

In turn, B7 came in with a variant/wild-type of 95 ratio.

Another assay shares this target. The assay can be described thus: competitive ELISA.
As to B8, the variant/HC_K99L came out at 16.5 ratio.

For B9, the variant/HC_K99L worked out at 15.1 ratio.

In turn, B10 returned a variant/HC_K99L of 5.9 ratio.

On to B11, for which the variant/HC_K99L turned out to be 16.8 ratio.

The molecule B12 gave a variant/HC_K99L of 2.4 ratio.

In turn, B13 came in with a variant/HC_K99L of 12.3 ratio.

As to B14, the variant/HC_K99L came to 15.5 ratio.

B15: the variant/HC_K99L worked out at 15.4 ratio.

The molecule B16 showed a variant/HC_K99L of 7.1 ratio.

The molecule B17 returned a variant/HC_K99L of 18.2 ratio.

B18 came in with a variant/HC_K99L of 19.9 ratio.

Turning to B19, the variant/HC_K99L worked out at 13.7 ratio.

In turn, B20 showed a variant/HC_K99L of 3.1 ratio.

The molecule B21 came in with a variant/HC_K99L of 21.2 ratio.

Regarding B22, the variant/HC_K99L worked out at 16.9 ratio.

With B23, the variant/HC_K99L was 18.7 ratio.

In turn, B24 gave a variant/HC_K99L of 9 ratio.

The next assay addresses T2, human tissue factor pathway inhibitor …. Briefly: competitive ELISA.
B8 yielded a variant/HC_K99L of 17 ratio.

Consider B9, for which the variant/HC_K99L was 18.7 ratio.

As to B10, the variant/HC_K99L was 9.8 ratio.

As to B11, the variant/HC_K99L came out at 21.4 ratio.

With B12, the variant/HC_K99L amounted to 2.2 ratio.

For B13, the variant/HC_K99L came to 18.8 ratio.

Molecule B14 had a variant/HC_K99L of 19.8 ratio.

As for B15, the variant/HC_K99L was determined as 18 ratio.

Molecule B16 registered a variant/HC_K99L of 11.4 ratio.

In turn, B17 yielded a variant/HC_K99L of 18.6 ratio.

B18: the variant/HC_K99L amounted to 22.8 ratio.

With B19, the variant/HC_K99L worked out at 15.7 ratio.

In turn, B20 gave a variant/HC_K99L of 5 ratio.

B21 returned a variant/HC_K99L of 23.1 ratio.

In the case of B22, the variant/HC_K99L was found to be 17.8 ratio.

B23 came in with a variant/HC_K99L of 21.4 ratio.

For the molecule B24, the variant/HC_K99L turned out to be 10.9 ratio.

The target is the same in the next assay. Briefly: competitive ELISA. The source holds these as a separate data set.
B1 showed a variant/wild-type of 9.8 ratio.

The molecule B2 registered a variant/wild-type of 52.3 ratio.

Molecule B3 showed a variant/wild-type of 6.8 ratio.

The molecule B4 registered a variant/wild-type of 29.3 ratio.

B5: the variant/wild-type was determined as 20.6 ratio.

Take B6: the variant/wild-type turned out to be 3.8 ratio.

B25 came in with a variant/wild-type of 2 ratio.

In turn, B7 registered a variant/wild-type of 31.9 ratio.
